Six sequences from the supplement of paper PMC11316812 can be followed below.

The subject of one series is MCF7. The series is described as follows: percentage of EdU-negative (G0-arrested) nuclei per well, 72 h; higher = more G0 arrest. The settings on record: reference: sequence is the full UniProt precursor, the tested protein was the secreted form or ectodomain.
In a further series the test system is hTERT-HMEC. The description is as above. The settings on record: reference: sequence is the full UniProt precursor, the tested protein was the secreted form or ectodomain.
The mark [1] stands for this setting: protein concentration 0.00825 µM.
The mark [2] stands for this setting: protein concentration 0.0825 µM.
Where [3] appears, read: protein concentration 0.0225 µM.
The mark [4] stands for this setting: protein concentration 0.03125 µM.
Where [5] appears, read: protein concentration 0.3125 µM.

± gives the standard deviation of the averaged measurements.
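Also: secreted proteins added to cultured cells, EdU pulse at the end, nuclei found by Hoechst imaging, EdU status from nuclear versus surrounding ring intensity ratio, PBS as neutral control.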

With “MLVGQGAGPLGPAVVTAAVVLLLSGVGPAHGSEDIVVGCGGFVKSDVEINYSLIEIKLYTKHGTLKYQTDCAPNNGYFMIPLYDKGDFILKIEPPLGWSFEPTTVELHVDGVSDICTKGGDINFVFTGFSVNGKVLSKGQPLGPAGVQVSLRNTGTEAKIQSTVTQPGGKFAFFKVLPGDYEILATHPTWALKEASTTVRVTNSNANAASPLIVAGYNVSGSVRSDGEPMKGVKFLLFSSLVTKEDVLGCNVSPVPGFQPQDESLVYLCYTVSREDGSFSFYSLPSGGYTVIPFYRGERITFDVAPSRLDFTVEHDSLKIEPVFHVMGFSVTGRVLNGPEGDGVPEAVVTLNNQIKVKTKADGSFRLENITTGTYTIHAQKEHLYFETVTIKIAPNTPQLADIIATGFSVCGQISIIRFPDTVKQMNKYKVVLSSQDKDKSLVTVETDAHGSFCFKAKPGTYKVQVMVPEAETRAGLTLKPQTFPLTVTNRPMMDVAFVQFLASVSGKVSCLDTCGDLLVTLQSLSRQGEKRSLQLSGKVNAMTFTFDNVLPGKYKISIMHEDWCWKNKSLEVEVLEDDMSAVEFRQTGYMLRCSLSHAITLEFYQDGNGRENVGIYNLSKGVNRFCLSKPGVYKVTPRSCHRFEQAFYTYDTSSPSILTLTAIRHHVLGTITTDKMMDVTVTIKSSIDSEPALVLGPLKSVQELRREQQLAEIEARRQEREKNGNEEGEERMTKPPVQEMVDELQGPFSYDFSYWARSGEKITVTPSSKELLFYPPSMEAVVSGESCPGKLIEIHGKAGLFLEGQIHPELEGVEIVISEKGASSPLITVFTDDKGAYSVGPLHSDLEYTVTSQKEGYVLTAVEGTIGDFKAYALAGVSFEIKAEDDQPLPGVLLSLSGGLFRSNLLTQDNGILTFSNLSPGQYYFKPMMKEFRFEPSSQMIEVQEGQNLKITITGYRTAYSCYGTVSSLNGEPEQGVAMEAVGQNDCSIYGEDTVTDEEGKFRLRGLLPGCVYHVQLKAEGNDHIERALPHHRVIEVGNNDIDDVNIIVFRQINQFDLSGNVITSSEYLPTLWVKLYKSENLDNPIQTVSLGQSLFFHFPPLLRDGENYVVLLDSTLPRSQYDYILPQVSFTAVGYHKHITLIFNPTRKLPEQDIAQGSYIALPLTLLVLLAGYNHDKLIPLLLQLTSRLQGVRALGQAASDNSGPEDAKRQAKKQKTRRT”, the “percentage of EdU-negative” value stood at 22.7 ± 1.3% in the series on MCF7 (setting [1]), 26.29 ± 0.074% in the series on MCF7 (setting [2]), 5.23 ± 0.14% in the series on hTERT-HMEC (setting [1]) and 7.14 ± 1.1% in the series on hTERT-HMEC (setting [2]).

On to “MLVRRGARAGPRMPRGWTALCLLSLLPSGFMSLDNNGTATPELPTQGTFSNVSTNVSYQETTTPSTLGSTSLHPVSQHGNEATTNITETTVKFTSTSVITSVYGNTNSSVQSQTSVISTVFTTPANVSTPETTLKPSLSPGNVSDLSTTSTSLATSPTKPYTSSSPILSDIKAEIKCSGIREVKLTQGICLEQNKTSSCAEFKKDRGEGLARVLCGEEQADADAGAQVCSLLLAQSEVRPQCLLLVLANRTEISSKLQLMKKHQSDLKKLGILDFTEQDVASHQSYSQKTLIALVTSGALLAVLGITGYFLMNRRSWSPTGERLGEDPYYTENGGGQGYSSGPGTSPEAQGKASVNRGAQENGTGQATSRNGHSARQHVVADTEL”, for which the “percentage of EdU-negative” value in the series with MCF7 (setting [3]) is 26.6 ± 1.4%; in the series with MCF7 (protein concentration 0.225 µM), 27.23 ± 0.19%; with hTERT-HMEC (setting [3]), 5.14 ± 0.39%; in the series with hTERT-HMEC (protein concentration 0.225 µM), 5.89 ± 0.59%.

On to “MLWLFQSLLFVFCFGPGNVVSQSSLTPLMVNGILGESVTLPLEFPAGEKVNFITWLFNETSLAFIVPHETKSPEIHVTNPKQGKRLNFTQSYSLQLSNLKMEDTGSYRAQISTKTSAKLSSYTLRILRQLRNIQVTNHSQLFQNMTCELHLTCSVEDADDNVSFRWEALGNTLSSQPNLTVSWDPRISSEQDYTCIAENAVSNLSFSVSAQKLCEDVKIQYTDTKMILFMVSGICIVFGFIILLLLVLRKRRDSLSLSTQRTQGPAESARNLEYVSVSPTNNTVYASVTHSNRETEIWTPRENDTITIYSTINHSKESKPTFSRATALDNVV [Q96DU3]”, for which the “percentage of EdU-negative” value amounted to 24.69 ± 0.12% in the series with MCF7 (setting [3]), 25 ± 1.3% with MCF7 (protein concentration 0.225 µM), 4.5 ± 0.13% in the series on hTERT-HMEC (setting [3]) and 5.94 ± 1.1% in the series on hTERT-HMEC (protein concentration 0.225 µM).

As to “MLWRQLIYWQLLALFFLPFCLCQDEYMESPQTGGLPPDCSKCCHGDYSFRGYQGPPGPPGPPGIPGNHGNNGNNGATGHEGAKGEKGDKGDLGPRGERGQHGPKGEKGYPGIPPELQIAFMASLATHFSNQNSGIIFSSVETNIGNFFDVMTGRFGAPVSGVYFFTFSMMKHEDVEEVYVYLMHNGNTVFSMYSYEMKGKSDTSSNHAVLKLAKGDEVWLRMGNGALHGDHQRFSTFAGFLLFETK [Q9BXJ4]”, the “percentage of EdU-negative” value worked out at 24.8 ± 1.7% with MCF7 (setting [3]), 26.38 ± 0.15% with MCF7 (protein concentration 0.225 µM), 5.75 ± 0.2% in the series on hTERT-HMEC (setting [3]) and 5.41 ± 0.19% in the series on hTERT-HMEC (protein concentration 0.225 µM).

“MMCGAPSATQPATAETQHIADQVRSQLEEKENKKFPVFKAVSFKSQVVAGTNYFIKVHVGDEDFVHLRVFQSLPHENKPLTLSNYQTNKAKHDELTYF”: the “percentage of EdU-negative” value worked out at 26 ± 3.3% in the series with MCF7 (setting [4]), 26.5 ± 2.9% in the series with MCF7 (setting [5]), 5.09 ± 0.59% with hTERT-HMEC (setting [4]) and 4.78 ± 0.35% with hTERT-HMEC (setting [5]).

With “MMCPLWRLLIFLGLLALPLAPHKQPWPGLAQAHRDNKSTLARIIAQGLIKHNAESRIQNIHFGDRLNASAQVAPGLVGWLISGRKHQQQQESSINITNIQLDCGGIQISFHKEWFSANISLEFDLELRPSFDNNIVKMCAHMSIVVEFWLEKDEFGRRDLVIGKCDAEPSSVHVAILTEAIPPKMNQFLYNLKENLQKVLPHMVESQVCPLIGEILGQLDVKLLKSLIEQEAAHEPTHHETSQPSACQAGESPS [Q9BQP9]”, the “percentage of EdU-negative” value with MCF7 (setting [3]) was found to be 25.2 ± 1.2%; with MCF7 (protein concentration 0.225 µM), 26.8 ± 0.78%; with hTERT-HMEC (setting [3]), 4.7 ± 0.18%; in the series on hTERT-HMEC (protein concentration 0.225 µM), 12.1 ± 1.2%.
